Patent US8409836B2, “Treatment of cellulosic material and enzymes useful therein” (Roal Oy, priority 2005, dated 2013)

Experiments:
[1] = Endoglucanase activity on carboxymethyl cellulose; format: biochemical; conditions: purified endoglucanase, 50° C., procedure of IUPAC 1987
In short: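 Endoglucanase activity of purified enzymes from Acremonium thermophilum ALKO4245 and Thermoascus aurantiacus ALKO4242 measured on carboxymethyl cellulose by the IUPAC 1987 standard procedure. Protein by Lowry for purified preparations; the A. thermophilum supernatant was pre-incubated 24 h at 70 °C before purification.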

[2] = Hydrolysis with endoglucanase preparations, spruce; format: biochemical; conditions: 48 h, 45° C., pH 5.0

B1: Ta EG_28: endoglucanase of Thermoascus aurantiacus ALKO4242, gene Ta cel5A, amino acid SEQ ID NO: 10 (protein)
chain: MKLGSLVLALSAARLTLSAPLADRKQETKRAKVFQWFGSNESGAEFGSQNLPGVEGKDYIWPDPNTIDTLISKGMNIFRVPFMMERLVPNSMTGSPDPNYLADLIATVNAITQKGAYAVVDPHNYGRYYNSIISSPSDFQTFWKTVASQFASNPLVIFDTNNEYHDMDQTLVLNLNQAAIDGIRSAGATSQYIFVEGNSWTGAWTWTNVNDNMKSLTDPSDKIIYEMHQYLDSDGSGTSATCVSSTIGQERITSATQWLRANGKKGIIGEFAGGANDVCETAITGMLDYMAQNTDVWTGAIWWAAGPWWGDYIFSMEPDNGIAYQQILPILTPYL
[1]
  Specific activity on CMC: 4290 nkat/mg
[2]; with CBHI and CBHII of T. reesei
  Hydrolysis products as reducing sugars, SPRUCE: 3.0 mg/mL
[2]; with T. aurantiacus Cel7A + Tr CBD
  Hydrolysis products as reducing sugars, SPRUCE: 1.5 mg/mL
